Residue numbers refer to the chain shown, from its start.
B1: SKA0009H-F760mnN17/SKA0009Ls-k0MT//TR01H113-F760mnP17/L0011-k0a (bispecific antibody, human IgG1, kappa, N297A)
heavy 1: QSVEESGGRLVTPGTSLTLTCTVSGIDLSSYGMGWVRQAPGMGLEYIGIIYAAGRTYYASWVKGRFIISKTSTTVDLEMTSLTTEDTATYFCARHGSWYAGMDLWGPGTLVTVSSASTKGPSVFPLAPSSKSTSGGTAALGCLVKDYFPEPVTVSWNSGALTSGVHTFPAVLQSSGLYSLSSVVTVPSSSLGTQTYICNVNHKPSNTKVDKKVEPKSCDKTHTCPPCPAPELRGGPKVFLFPPKPKDTLMISRTPEVTCVVVDVSHEDPEVKFNWYVDGVEVHNAKTKPREEQYASTYRVVSVLTVLHQDWLNGKEYKCKVSNKALPAPIEKTISKAKGQPREPQVYTLPPSREEMTKNQVSLTCLVKGFYPSDIAVEWESNGQPENNYKTTPPYLDSDGSFFLYSKLTVDKSRWQQGNVFSCSVMHEALHNHYTQESLSLSP
light 1: AIEMTQTPSPVSAAVGGTVSINCQASEDIENYFAWYQQKPGQPPKLLIYDASELASGVPSRFSGSGSGTDFTLTISGVQSDDAATYYCQHADYAASSENTFGGGTEVVVKRTVAAPSVFIFPPSDEQLKSGTASVVCLLNNFYPREAKVQWKVDNALQSGNSQESVTEQDSKDSTYSLSSTLTLSKADYEKHKVYACEVTHQGLSSPVTKSFNRGEC
heavy 2: QVQLVESGGGVVQPGGSLRLSCAASGFTFSNAWMHWVRQAPGKGLEWVAQIKDKSQNYATYVAESVKGRFTISRADSKNSIYLQMNSLKTEDTAVYYCRYVHYAAGYGVDIWGQGTTVTVSSASTKGPSVFPLAPSSKSTSGGTAALGCLVKDYFPEPVTVSWNSGALTSGVHTFPAVLQSSGLYSLSSVVTVPSSSLGTQTYICNVNHKPSNTKVDKKVEPKSCDKTHTCPPCPAPELRGGPKVFLFPPKPKDTLMISRTPEVTCVVVDVSHEDPEVKFNWYVDGVEVHNAKTKPREEQYASTYRVVSVLTVLHQDWLNGKEYKCKVSNKALPAPIEKTISKAKGQPREPQVYTLPPSRKEMTKNQVSLTCLVKGFYPSDIAVEWESNGQPENNYKTTPPYLDSDGSFFLYSKLTVDKSRWQQGNVFSCSVMHEALHNHYTQKSLSLSP
light 2: DIVMTQSPLSLPVTPGEPASISCRSSQPLVHSNRNTYLHWYQQKPGQAPRLLIYKVSNRFSGVPDRFSGSGSGTDFTLKISRVEAEDVGVYYCGQGTQVPYTFGQGTKLEIKRTVAAPSVFIFPPSDEQLKSGTASVVCLLNNFYPREAKVQWKVDNALQSGNSQESVTEQDSKDSTYSLSSTLTLSKADYEKHKVYACEVTHQGLSSPVTKSFNRGEC
notes: Bispecific IgG made by mixing two homomers under 2-MEA reduction; also called anti-silent Fc antibody; silent Fc×CD3
B2: YG55H-F760mnN17GK/YG55L-k0//TR01H113-F760mnP17GK/L0011-k0a (bispecific antibody, human IgG1, kappa, N297A)
heavy 1: QSLEESGGRLVTPGGSLTLTCTVSGIDLSNYAVGWVRQAPGKGLEYIGIIYASGSAYYASWAKGRFTISKTSSTTVDLKVTSLTTEDTATYFCARGYGRAFRIWGPGTLVTVSSASTKGPSVFPLAPSSKSTSGGTAALGCLVKDYFPEPVTVSWNSGALTSGVHTFPAVLQSSGLYSLSSVVTVPSSSLGTQTYICNVNHKPSNTKVDKKVEPKSCDKTHTCPPCPAPELRGGPKVFLFPPKPKDTLMISRTPEVTCVVVDVSHEDPEVKFNWYVDGVEVHNAKTKPREEQYASTYRVVSVLTVLHQDWLNGKEYKCKVSNKALPAPIEKTISKAKGQPREPQVYTLPPSREEMTKNQVSLTCLVKGFYPSDIAVEWESNGQPENNYKTTPPYLDSDGSFFLYSKLTVDKSRWQQGNVFSCSVMHEALHNHYTQESLSLSPGK
light 1: AVLTQTPSPVSAAVGGTVTISCQASQSVYNNNFLSWYQQKPGQRPKLLIYDASTLESGVPSRFSGSGSGTQFTLTISSVQCDDAATYYCLGGYDDHDNAFGGGTEVVVKRTVAAPSVFIFPPSDEQLKSGTASVVCLLNNFYPREAKVQWKVDNALQSGNSQESVTEQDSKDSTYSLSSTLTLSKADYEKHKVYACEVTHQGLSSPVTKSFNRGEC
heavy 2: QVQLVESGGGVVQPGGSLRLSCAASGFTFSNAWMHWVRQAPGKGLEWVAQIKDKSQNYATYVAESVKGRFTISRADSKNSIYLQMNSLKTEDTAVYYCRYVHYAAGYGVDIWGQGTTVTVSSASTKGPSVFPLAPSSKSTSGGTAALGCLVKDYFPEPVTVSWNSGALTSGVHTFPAVLQSSGLYSLSSVVTVPSSSLGTQTYICNVNHKPSNTKVDKKVEPKSCDKTHTCPPCPAPELRGGPKVFLFPPKPKDTLMISRTPEVTCVVVDVSHEDPEVKFNWYVDGVEVHNAKTKPREEQYASTYRVVSVLTVLHQDWLNGKEYKCKVSNKALPAPIEKTISKAKGQPREPQVYTLPPSRKEMTKNQVSLTCLVKGFYPSDIAVEWESNGQPENNYKTTPPYLDSDGSFFLYSKLTVDKSRWQQGNVFSCSVMHEALHNHYTQKSLSLSPGK
light 2: B1 light 2
notes: Bispecific IgG made by mixing two homomers under 2-MEA reduction; also called anti-delta GK-Fc antibody; delta GK-Fc×CD3
B3: H0000-SG115/GL4-k0a (antibody)
heavy: QVQLVQSGAEVKKPGASVKVSCKASGYTFTDYEMHWIRQPPGQGLEWIGAIDPKTGDTAYSQKFKGRVTLTADKSTSTAYMELSSLTSEDTAVYYCTRFYSYTYWGQGTLVTVSSASTKGPSVFPLAPSSKSTSGGTAALGCLVKDYFPEPVTVSWNSGALTSGVHTFPAVLQSSGLYSLSSVVTVPSSSLGTQTYICNVNHKPSNTKVDKKVEPKSCDKTHTCPPCPAPELRRGPKVFLFPPKPKDTLMISRTPEVTCVVVDVSHEDPEVKFNWYVDGVEVHNAKTKPREEQYNSTYRVVSVLTVLHQDWLNGKEYKCKVSNKGLPSSIEKTISKAKGQPREPQVYTLPPSREEMTKNQVSLTCLVKGFYPSDIAVEWESNGQPENNYKTTPPVLDSDGSFFLYSKLTVDKSRWQQGNVFSCSVLHEALHAHYTRKELSLSP
light: B1 light 2 with P28S, G94S, G96N, Q98H, Y101P
notes: Anti-GPC3 antibody with the SG115 constant region, which is both silent Fc and delta GK-Fc; also called anti-GPC3 silent Fc antibody; anti-GPC3 silent Fc and anti-delta GK-Fc antibody
B4: H0000-G1T3GK/GL4-k0a (antibody, human IgG1, kappa)
heavy: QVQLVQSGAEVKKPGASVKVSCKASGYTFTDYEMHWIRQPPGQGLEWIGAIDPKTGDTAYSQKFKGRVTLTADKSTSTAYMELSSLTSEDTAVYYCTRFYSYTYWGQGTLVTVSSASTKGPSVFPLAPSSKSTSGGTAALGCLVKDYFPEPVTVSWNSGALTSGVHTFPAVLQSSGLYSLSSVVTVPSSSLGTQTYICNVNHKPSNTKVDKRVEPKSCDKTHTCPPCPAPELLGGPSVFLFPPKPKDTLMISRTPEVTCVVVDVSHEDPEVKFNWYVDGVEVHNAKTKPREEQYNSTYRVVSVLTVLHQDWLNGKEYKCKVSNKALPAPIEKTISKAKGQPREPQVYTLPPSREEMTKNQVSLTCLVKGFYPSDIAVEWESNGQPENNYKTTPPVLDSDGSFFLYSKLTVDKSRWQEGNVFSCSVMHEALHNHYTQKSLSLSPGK
light: B1 light 2 with P28S, G94S, G96N, Q98H, Y101P
notes: Control antigen antibody with the same variable regions as m1 and a human IgG1 constant region carrying C-terminal GK; also called anti-GPC3 antibody with C-terminal addition of Gly-Lys; anti-GPC3 antibody having IgG1 constant region having C-terminal GK

Assays:
H0000-SG115/GL4-k0a = target: B3; test: SPR (Biacore T200), multi-cycle kinetics; anti-GPC3 antibody captured on engineered GPC3 CM4 chip, bispecific antibody as analyte at 15.6-1000 nM
H0000-G1T3GK/GL4-k0a = target: B4; test: as above
engineered GPC3 = engineered GPC3 (Homo sapiens (Human), UniProt P51654 25-563); test: SPR (Biacore T200); capture of the antibody on an engineered GPC3 CM4 chip
Chain of engineered GPC3 (P51654 other isoform, or with tags, fused parts or gaps limits assumed): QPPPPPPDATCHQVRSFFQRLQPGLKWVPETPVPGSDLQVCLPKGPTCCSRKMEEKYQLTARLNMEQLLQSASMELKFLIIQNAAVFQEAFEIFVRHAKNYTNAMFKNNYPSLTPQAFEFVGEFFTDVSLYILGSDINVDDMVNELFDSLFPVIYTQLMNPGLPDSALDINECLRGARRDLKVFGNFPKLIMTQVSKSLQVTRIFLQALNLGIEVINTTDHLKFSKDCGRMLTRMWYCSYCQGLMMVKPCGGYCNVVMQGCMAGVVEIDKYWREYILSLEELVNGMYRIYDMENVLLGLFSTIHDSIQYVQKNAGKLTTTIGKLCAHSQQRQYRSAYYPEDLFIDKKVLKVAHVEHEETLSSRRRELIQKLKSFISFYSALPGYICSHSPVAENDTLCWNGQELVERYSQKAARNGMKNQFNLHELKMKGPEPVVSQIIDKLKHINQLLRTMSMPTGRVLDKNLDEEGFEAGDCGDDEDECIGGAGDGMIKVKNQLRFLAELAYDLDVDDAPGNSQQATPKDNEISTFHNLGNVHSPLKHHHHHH

Binder: B1
- Kd (H0000-SG115/GL4-k0a): < 0.26 nM
- koff (H0000-SG115/GL4-k0a): < 1e-05 s⁻¹
- kon (H0000-SG115/GL4-k0a): 38900 M⁻¹ s⁻¹
- kon (H0000-G1T3GK/GL4-k0a): 2610 M⁻¹ s⁻¹

Binder: B2
- Kd (H0000-SG115/GL4-k0a): 41.7 nM
- koff (H0000-SG115/GL4-k0a): 0.00348 s⁻¹
- kon (H0000-SG115/GL4-k0a): 83500 M⁻¹ s⁻¹

Binder: B3
- binding result (engineered GPC3): binds

Binder: B4
- binding result (engineered GPC3): binds

— US20220143094A1 (Chugai, published 2022)
